Source: US20180009871A1 (INTARCIA THERAPEUTICS, published 2018)
Where no end group is shown, it is not given here. [ ]: non-standard residue; d: D form. Aib = CC(C)(N)C(=O)O

B1: Compound A21 (peptide)
peptide: YSHGTFTSDYSKYLD[Aib]KRAQEFV[Aib]WLEDEPSSGEPPPS-OH
modifications: N-terminus assumed
SMILES: CC(C)C[C@H](NC(=O)[C@H](Cc1ccc(O)cc1)NC(=O)[C@H](CCCCN)NC(=O)[C@H](CO)NC(=O)[C@H](Cc1ccc(O)cc1)NC(=O)[C@H](CC(=O)O)NC(=O)[C@H](CO)NC(=O)[C@@H](NC(=O)[C@H](Cc1ccccc1)NC(=O)[C@@H](NC(=O)CNC(=O)[C@H](Cc1c[nH]cn1)NC(=O)[C@H](CO)NC(=O)[C@@H](N)Cc1ccc(O)cc1)[C@@H](C)O)[C@@H](C)O)C(=O)N[C@@H](CC(=O)O)C(=O)NC(C)(C)C(=O)N[C@@H](CCCCN)C(=O)N[C@@H](CCCNC(=N)N)C(=O)N[C@@H](C)C(=O)N[C@@H](CCC(N)=O)C(=O)N[C@@H](CCC(=O)O)C(=O)N[C@@H](Cc1ccccc1)C(=O)N[C@H](C(=O)NC(C)(C)C(=O)N[C@@H](Cc1c[nH]c2ccccc12)C(=O)N[C@@H](CC(C)C)C(=O)N[C@@H](CCC(=O)O)C(=O)N[C@@H](CC(=O)O)C(=O)N[C@@H](CCC(=O)O)C(=O)N1CCC[C@H]1C(=O)N[C@@H](CO)C(=O)N[C@@H](CO)C(=O)NCC(=O)N[C@@H](CCC(=O)O)C(=O)N1CCC[C@H]1C(=O)N1CCC[C@H]1C(=O)N1CCC[C@H]1C(=O)N[C@@H](CO)C(=O)O)C(C)C
B2: Compound A23 (peptide)
peptide: YSHGTFTSDYSKYLD[Aib]KRAQEFV[Aib]WLEDEPSSKAPPPS-OH
modifications: N-terminus assumed
SMILES: CC(C)C[C@H](NC(=O)[C@H](Cc1ccc(O)cc1)NC(=O)[C@H](CCCCN)NC(=O)[C@H](CO)NC(=O)[C@H](Cc1ccc(O)cc1)NC(=O)[C@H](CC(=O)O)NC(=O)[C@H](CO)NC(=O)[C@@H](NC(=O)[C@H](Cc1ccccc1)NC(=O)[C@@H](NC(=O)CNC(=O)[C@H](Cc1c[nH]cn1)NC(=O)[C@H](CO)NC(=O)[C@@H](N)Cc1ccc(O)cc1)[C@@H](C)O)[C@@H](C)O)C(=O)N[C@@H](CC(=O)O)C(=O)NC(C)(C)C(=O)N[C@@H](CCCCN)C(=O)N[C@@H](CCCNC(=N)N)C(=O)N[C@@H](C)C(=O)N[C@@H](CCC(N)=O)C(=O)N[C@@H](CCC(=O)O)C(=O)N[C@@H](Cc1ccccc1)C(=O)N[C@H](C(=O)NC(C)(C)C(=O)N[C@@H](Cc1c[nH]c2ccccc12)C(=O)N[C@@H](CC(C)C)C(=O)N[C@@H](CCC(=O)O)C(=O)N[C@@H](CC(=O)O)C(=O)N[C@@H](CCC(=O)O)C(=O)N1CCC[C@H]1C(=O)N[C@@H](CO)C(=O)N[C@@H](CO)C(=O)N[C@@H](CCCCN)C(=O)N[C@@H](C)C(=O)N1CCC[C@H]1C(=O)N1CCC[C@H]1C(=O)N1CCC[C@H]1C(=O)N[C@@H](CO)C(=O)O)C(C)C
B3: Compound A24 (peptide)
peptide: YSHGTFTSDYSKYLD[Aib]KRAQEFV[Aib]WLEDEPSSKGAPPPS-OH
modifications: N-terminus assumed
SMILES: CC(C)C[C@H](NC(=O)[C@H](Cc1ccc(O)cc1)NC(=O)[C@H](CCCCN)NC(=O)[C@H](CO)NC(=O)[C@H](Cc1ccc(O)cc1)NC(=O)[C@H](CC(=O)O)NC(=O)[C@H](CO)NC(=O)[C@@H](NC(=O)[C@H](Cc1ccccc1)NC(=O)[C@@H](NC(=O)CNC(=O)[C@H](Cc1c[nH]cn1)NC(=O)[C@H](CO)NC(=O)[C@@H](N)Cc1ccc(O)cc1)[C@@H](C)O)[C@@H](C)O)C(=O)N[C@@H](CC(=O)O)C(=O)NC(C)(C)C(=O)N[C@@H](CCCCN)C(=O)N[C@@H](CCCNC(=N)N)C(=O)N[C@@H](C)C(=O)N[C@@H](CCC(N)=O)C(=O)N[C@@H](CCC(=O)O)C(=O)N[C@@H](Cc1ccccc1)C(=O)N[C@H](C(=O)NC(C)(C)C(=O)N[C@@H](Cc1c[nH]c2ccccc12)C(=O)N[C@@H](CC(C)C)C(=O)N[C@@H](CCC(=O)O)C(=O)N[C@@H](CC(=O)O)C(=O)N[C@@H](CCC(=O)O)C(=O)N1CCC[C@H]1C(=O)N[C@@H](CO)C(=O)N[C@@H](CO)C(=O)N[C@@H](CCCCN)C(=O)NCC(=O)N[C@@H](C)C(=O)N1CCC[C@H]1C(=O)N1CCC[C@H]1C(=O)N1CCC[C@H]1C(=O)N[C@@H](CO)C(=O)O)C(C)C
B4: Compound A26 (peptide)
peptide: YSHGTFTSDYSKYLD[Aib]KRAQEFV[Aib]WLEDEPSSGAPPPSE-OH
modifications: N-terminus assumed
SMILES: CC(C)C[C@H](NC(=O)[C@H](Cc1ccc(O)cc1)NC(=O)[C@H](CCCCN)NC(=O)[C@H](CO)NC(=O)[C@H](Cc1ccc(O)cc1)NC(=O)[C@H](CC(=O)O)NC(=O)[C@H](CO)NC(=O)[C@@H](NC(=O)[C@H](Cc1ccccc1)NC(=O)[C@@H](NC(=O)CNC(=O)[C@H](Cc1c[nH]cn1)NC(=O)[C@H](CO)NC(=O)[C@@H](N)Cc1ccc(O)cc1)[C@@H](C)O)[C@@H](C)O)C(=O)N[C@@H](CC(=O)O)C(=O)NC(C)(C)C(=O)N[C@@H](CCCCN)C(=O)N[C@@H](CCCNC(=N)N)C(=O)N[C@@H](C)C(=O)N[C@@H](CCC(N)=O)C(=O)N[C@@H](CCC(=O)O)C(=O)N[C@@H](Cc1ccccc1)C(=O)N[C@H](C(=O)NC(C)(C)C(=O)N[C@@H](Cc1c[nH]c2ccccc12)C(=O)N[C@@H](CC(C)C)C(=O)N[C@@H](CCC(=O)O)C(=O)N[C@@H](CC(=O)O)C(=O)N[C@@H](CCC(=O)O)C(=O)N1CCC[C@H]1C(=O)N[C@@H](CO)C(=O)N[C@@H](CO)C(=O)NCC(=O)N[C@@H](C)C(=O)N1CCC[C@H]1C(=O)N1CCC[C@H]1C(=O)N1CCC[C@H]1C(=O)N[C@@H](CO)C(=O)N[C@@H](CCC(=O)O)C(=O)O)C(C)C
B5: Compound A25 (peptide)
peptide: YSHGTFTSDYSKYLD[Aib]KRAQEFV[Aib]WLEDEPSSGAPPPSS-OH
modifications: N-terminus assumed
SMILES: CC(C)C[C@H](NC(=O)[C@H](Cc1ccc(O)cc1)NC(=O)[C@H](CCCCN)NC(=O)[C@H](CO)NC(=O)[C@H](Cc1ccc(O)cc1)NC(=O)[C@H](CC(=O)O)NC(=O)[C@H](CO)NC(=O)[C@@H](NC(=O)[C@H](Cc1ccccc1)NC(=O)[C@@H](NC(=O)CNC(=O)[C@H](Cc1c[nH]cn1)NC(=O)[C@H](CO)NC(=O)[C@@H](N)Cc1ccc(O)cc1)[C@@H](C)O)[C@@H](C)O)C(=O)N[C@@H](CC(=O)O)C(=O)NC(C)(C)C(=O)N[C@@H](CCCCN)C(=O)N[C@@H](CCCNC(=N)N)C(=O)N[C@@H](C)C(=O)N[C@@H](CCC(N)=O)C(=O)N[C@@H](CCC(=O)O)C(=O)N[C@@H](Cc1ccccc1)C(=O)N[C@H](C(=O)NC(C)(C)C(=O)N[C@@H](Cc1c[nH]c2ccccc12)C(=O)N[C@@H](CC(C)C)C(=O)N[C@@H](CCC(=O)O)C(=O)N[C@@H](CC(=O)O)C(=O)N[C@@H](CCC(=O)O)C(=O)N1CCC[C@H]1C(=O)N[C@@H](CO)C(=O)N[C@@H](CO)C(=O)NCC(=O)N[C@@H](C)C(=O)N1CCC[C@H]1C(=O)N1CCC[C@H]1C(=O)N1CCC[C@H]1C(=O)N[C@@H](CO)C(=O)N[C@@H](CO)C(=O)O)C(C)C
B6: Compound A22 (peptide)
peptide: YSHGTFTSDYSKYLD[Aib]KRAQEFV[Aib]WLEDEPSSGSPPPS-OH
modifications: N-terminus assumed
SMILES: CC(C)C[C@H](NC(=O)[C@H](Cc1ccc(O)cc1)NC(=O)[C@H](CCCCN)NC(=O)[C@H](CO)NC(=O)[C@H](Cc1ccc(O)cc1)NC(=O)[C@H](CC(=O)O)NC(=O)[C@H](CO)NC(=O)[C@@H](NC(=O)[C@H](Cc1ccccc1)NC(=O)[C@@H](NC(=O)CNC(=O)[C@H](Cc1c[nH]cn1)NC(=O)[C@H](CO)NC(=O)[C@@H](N)Cc1ccc(O)cc1)[C@@H](C)O)[C@@H](C)O)C(=O)N[C@@H](CC(=O)O)C(=O)NC(C)(C)C(=O)N[C@@H](CCCCN)C(=O)N[C@@H](CCCNC(=N)N)C(=O)N[C@@H](C)C(=O)N[C@@H](CCC(N)=O)C(=O)N[C@@H](CCC(=O)O)C(=O)N[C@@H](Cc1ccccc1)C(=O)N[C@H](C(=O)NC(C)(C)C(=O)N[C@@H](Cc1c[nH]c2ccccc12)C(=O)N[C@@H](CC(C)C)C(=O)N[C@@H](CCC(=O)O)C(=O)N[C@@H](CC(=O)O)C(=O)N[C@@H](CCC(=O)O)C(=O)N1CCC[C@H]1C(=O)N[C@@H](CO)C(=O)N[C@@H](CO)C(=O)NCC(=O)N[C@@H](CO)C(=O)N1CCC[C@H]1C(=O)N1CCC[C@H]1C(=O)N1CCC[C@H]1C(=O)N[C@@H](CO)C(=O)O)C(C)C
B7: Compound A20 (peptide)
peptide: YSHGTFTSDYSKYLD[Aib]KRAQEFV[Aib]WLEDEPSSGKPPPS-OH
modifications: N-terminus assumed
SMILES: CC(C)C[C@H](NC(=O)[C@H](Cc1ccc(O)cc1)NC(=O)[C@H](CCCCN)NC(=O)[C@H](CO)NC(=O)[C@H](Cc1ccc(O)cc1)NC(=O)[C@H](CC(=O)O)NC(=O)[C@H](CO)NC(=O)[C@@H](NC(=O)[C@H](Cc1ccccc1)NC(=O)[C@@H](NC(=O)CNC(=O)[C@H](Cc1c[nH]cn1)NC(=O)[C@H](CO)NC(=O)[C@@H](N)Cc1ccc(O)cc1)[C@@H](C)O)[C@@H](C)O)C(=O)N[C@@H](CC(=O)O)C(=O)NC(C)(C)C(=O)N[C@@H](CCCCN)C(=O)N[C@@H](CCCNC(=N)N)C(=O)N[C@@H](C)C(=O)N[C@@H](CCC(N)=O)C(=O)N[C@@H](CCC(=O)O)C(=O)N[C@@H](Cc1ccccc1)C(=O)N[C@H](C(=O)NC(C)(C)C(=O)N[C@@H](Cc1c[nH]c2ccccc12)C(=O)N[C@@H](CC(C)C)C(=O)N[C@@H](CCC(=O)O)C(=O)N[C@@H](CC(=O)O)C(=O)N[C@@H](CCC(=O)O)C(=O)N1CCC[C@H]1C(=O)N[C@@H](CO)C(=O)N[C@@H](CO)C(=O)NCC(=O)N[C@@H](CCCCN)C(=O)N1CCC[C@H]1C(=O)N1CCC[C@H]1C(=O)N1CCC[C@H]1C(=O)N[C@@H](CO)C(=O)O)C(C)C

The binders below were run against human glucagon receptor (GCGR) (human, UniProt P47871 26-477) (assay: cell-based or functional assay).
B1 was tested, and the “hGCGR pEC50 (cAMP)” value was 11.1 pEC50.
With B2 the “hGCGR pEC50 (cAMP)” value was 11.2 pEC50.
B3 was tested, and the “hGCGR pEC50 (cAMP)” value was 12.2 pEC50.
With B4 the “hGCGR pEC50 (cAMP)” value was 11.1 pEC50.
B5 was tested, and the “hGCGR pEC50 (cAMP)” value was 11.3 pEC50.
B6 was tested, and the “hGCGR pEC50 (cAMP)” value was 11 pEC50.
With B7 the “hGCGR pEC50 (cAMP)” value was 13.3 pEC50.

The binders below were run against human GLP-1 receptor (GLP-1R) (human, UniProt P43220 24-463) (assay: cell-based or functional assay).
Chain of human GLP-1 receptor (GLP-1R) (P43220 24-463): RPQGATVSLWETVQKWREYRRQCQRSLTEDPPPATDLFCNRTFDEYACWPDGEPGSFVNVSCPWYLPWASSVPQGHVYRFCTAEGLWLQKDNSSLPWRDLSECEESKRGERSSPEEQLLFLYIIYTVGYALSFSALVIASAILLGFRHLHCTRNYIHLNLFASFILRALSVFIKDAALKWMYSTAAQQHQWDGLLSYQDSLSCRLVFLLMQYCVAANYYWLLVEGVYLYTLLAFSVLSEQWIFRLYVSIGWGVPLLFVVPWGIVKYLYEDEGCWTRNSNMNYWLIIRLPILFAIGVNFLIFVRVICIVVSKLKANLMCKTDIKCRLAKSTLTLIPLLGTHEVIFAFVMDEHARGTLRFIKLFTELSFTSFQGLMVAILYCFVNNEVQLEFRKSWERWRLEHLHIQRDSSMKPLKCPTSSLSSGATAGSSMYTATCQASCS
For B1, the “hGLP1 pEC50 (cAMP)” value was less than 9 pEC50.
With B2 the “hGLP1 pEC50 (cAMP)” value was less than 9 pEC50.
With B3 the “hGLP1 pEC50 (cAMP)” value was less than 9 pEC50.
In the case of B4, the “hGLP1 pEC50 (cAMP)” value is reported as less than 9 pEC50.
B5 was tested, and the “hGLP1 pEC50 (cAMP)” value was less than 9 pEC50.
For B6, the “hGLP1 pEC50 (cAMP)” value was less than 9 pEC50.
With B7 the “hGLP1 pEC50 (cAMP)” value was less than 9 pEC50.
